Substrate in this series: CCCC(=O)OP(=O)(O)O
Put plainly: purified protein. The series is classed as biochemical, Listeria monocytogenes. Conditions: 500 µM CoA, 100 mM Tris pH 7.5, 25 °C.

B1: Ptb (phosphotransbutyrylase, LmPtb) (Listeria monocytogenes EGD-e) (protein)
chain: MTKSRFFSDVAETSSFVFAVAGADDEVVLETIRLALKQKLGKFLLFGKKEDKTLTANESVTWIQTDTAEAAAQGAILAVKNKEADILVKGFIPTATLMHHVLKKENGLRTDQLLSQIAIFDIPTYHKPLLITDCAMNVAPKTKEKIAITENALAVAHQIGITNPKIALLSAVEEVTAKMPSTLEAQEVVQHFGNQISVSGPLALDVAISKEAALHKGITDSSAGEADILIAPNIETGNALYKSLVYFAGAKVGSAVVGAKVPIVISSRNDSPENKLASFILTVRLVEK
Consider B1, for which the Michaelis constant (Km) turned out to be 1040 µM.

The values are drawn from PMC4947441.
